IntAct's records for PubMed 12679424

B1: Insulin receptor substrate 1 (Homo sapiens), P35568 (parent)
chain: MASPPESDGFSDVRKVGYLRKPKSMHKRFFVLRAASEAGGPARLEYYENEKKWRHKSSAPKRSIPLESCFNINKRADSKNKHLVALYTRDEHFAIAADSEAEQDSWYQALLQLHNRAKGHHDGAAALGAGGGGGSCSGSSGLGEAGEDLSYGDVPPGPAFKEVWQVILKPKGLGQTKNLIGIYRLCLTSKTISFVKLNSEAAAVVLQLMNIRRCGHSENFFFIEVGRSAVTGPGEFWMQVDDSVVAQNMHETILEAMRAMSDEFRPRSKSQSSSNCSNPISVPLRRHHLNNPPPSQVGLTRRSRTESITATSPASMVGGKPGSFRVRASSDGEGTMSRPASVDGSPVSPSTNRTHAHRHRGSARLHPPLNHSRSIPMPASRCSPSATSPVSLSSSSTSGHGSTSDCLFPRRSSASVSGSPSDGGFISSDEYGSSPCDFRSSFRSVTPDSLGHTPPARGEEELSNYICMGGKGPSTLTAPNGHYILSRGGNGHRCTPGTGLGTSPALAGDEAASAADLDNRFRKRTHSAGTSPTITHQKTPSQSSVASIEEYTEMMPAYPPGGGSGGRLPGHRHSAFVPTRSYPEEGLEMHPLERRGGHHRPDSSTLHTDDGYMPMSPGVAPVPSGRKGSGDYMPMSPKSVSAPQQIINPIRRHPQRVDPNGYMMMSPSGGCSPDIGGGPSSSSSSSNAVPSGTSYGKLWTNGVGGHHSHVLPHPKPPVESSGGKLLPCTGDYMNMSPVGDSNTSSPSDCYYGPEDPQHKPVLSYYSLPRSFKHTQRPGEPEEGARHQHLRLSTSSGRLLYAATADDSSSSTSSDSLGGGYCGARLEPSLPHPHHQVLQPHLPRKVDTAAQTNSRLARPTRLSLGDPKASTLPRAREQQQQQQPLLHPPEPKSPGEYVNIEFGSDQSGYLSGPVAFHSSPSVRCPSQLQPAPREEETGTEEYMKMDLGPGRRAAWQESTGVEMGRLGPAPPGAASICRPTRAVPSSRGDYMTMQMSCPRQSYVDTSPAAPVSYADMRTGIAAEEVSLPRATMAAASSSSAASASPTGPQGAAELAAHSSLLGGPQGPGGMSAFTRVNLSPNRNQSAKVIRADPQGCRRRHSSETFSSTPSATRVGNTVPFGAGAAVGGGGGSSSSSEDVKRHSSASFENVWLRPGELGGAPKEPAKLCGAAGGLENGLNYIDLDLVKDFKQCPQECTPEPQPPPPPPPHQPLGSGESSSTRRSSEDLSAYASISFQKQPEDRQ

Variants of: B1
Conditions: with p85a_mouse Pik3r1, P26450
p85a_mouse Pik3r1, P26450, sequence (P26450 whole entry): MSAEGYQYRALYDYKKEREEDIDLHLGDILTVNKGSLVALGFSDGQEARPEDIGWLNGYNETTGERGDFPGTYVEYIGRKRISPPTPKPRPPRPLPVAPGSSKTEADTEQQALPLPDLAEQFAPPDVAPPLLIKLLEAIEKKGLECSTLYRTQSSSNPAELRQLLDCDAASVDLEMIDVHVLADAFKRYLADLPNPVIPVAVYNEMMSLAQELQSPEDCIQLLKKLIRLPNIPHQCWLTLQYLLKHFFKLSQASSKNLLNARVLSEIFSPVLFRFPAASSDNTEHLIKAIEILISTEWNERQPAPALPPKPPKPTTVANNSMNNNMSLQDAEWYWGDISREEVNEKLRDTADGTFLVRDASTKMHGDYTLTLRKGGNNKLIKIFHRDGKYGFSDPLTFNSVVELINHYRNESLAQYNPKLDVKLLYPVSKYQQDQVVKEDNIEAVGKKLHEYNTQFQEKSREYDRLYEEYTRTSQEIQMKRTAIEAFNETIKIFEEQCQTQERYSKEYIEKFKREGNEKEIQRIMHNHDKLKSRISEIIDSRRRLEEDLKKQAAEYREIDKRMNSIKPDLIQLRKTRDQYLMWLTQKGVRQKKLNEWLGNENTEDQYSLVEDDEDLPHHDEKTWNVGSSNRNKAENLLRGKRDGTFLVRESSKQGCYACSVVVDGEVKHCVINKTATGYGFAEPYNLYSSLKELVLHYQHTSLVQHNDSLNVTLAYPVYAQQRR

Row | Variant | effect of a mutation on the interaction
1 | T608R | decreasing interaction
